US20230071609A1 (Genentech, published 2023)

T1: circulating APOL1 in normal human serum (human, UniProt O14791 28-398)
T1 construct: mature; Serum of healthy volunteers; lipoprotein-associated; also called serum APOL1; HDL APOL1
T1 sequence (looked up): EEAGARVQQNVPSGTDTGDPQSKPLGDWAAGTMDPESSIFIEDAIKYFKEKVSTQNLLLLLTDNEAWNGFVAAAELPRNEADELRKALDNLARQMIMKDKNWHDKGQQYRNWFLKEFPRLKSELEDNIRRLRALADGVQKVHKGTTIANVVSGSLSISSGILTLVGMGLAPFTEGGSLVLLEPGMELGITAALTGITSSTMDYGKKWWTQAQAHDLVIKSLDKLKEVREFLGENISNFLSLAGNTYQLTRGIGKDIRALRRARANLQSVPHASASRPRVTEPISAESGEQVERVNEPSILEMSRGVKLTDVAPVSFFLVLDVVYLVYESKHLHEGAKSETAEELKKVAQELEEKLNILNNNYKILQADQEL

T2: untagged APOL1-G0, KIK variant, transiently expressed (COS cells) (human, UniProt O14791 29-398)
T2 construct: Origene SC109941 clone with E150K, M228I, R255K
T2 chain: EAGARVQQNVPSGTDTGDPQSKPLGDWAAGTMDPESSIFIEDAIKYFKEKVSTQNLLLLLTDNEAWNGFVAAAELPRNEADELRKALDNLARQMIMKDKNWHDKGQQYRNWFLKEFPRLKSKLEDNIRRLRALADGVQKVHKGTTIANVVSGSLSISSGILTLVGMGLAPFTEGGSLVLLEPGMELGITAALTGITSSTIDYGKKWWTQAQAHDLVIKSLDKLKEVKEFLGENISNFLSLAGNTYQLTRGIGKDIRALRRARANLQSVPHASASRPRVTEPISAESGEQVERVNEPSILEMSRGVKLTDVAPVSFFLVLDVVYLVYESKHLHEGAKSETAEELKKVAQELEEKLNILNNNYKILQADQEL


Legend:
[1] = molecular target: T1, circulating APOL1 in normal human serum; assay: summary of the Examples: trypanolysis blocking as proxy for serum APOL1
Method: The trypanolysis assay used herein to text specificity of antibodies for serum APOL1 is as follows. Trypanosoma brucei brucei were obtained from ATCC and cultured in HMI-9 media containing IMDM (Genentech), heat-inactivated (56° C. for 30 min) FBS (Seradigm IXL9/06807/GEN), 1% serum plus (Sigma 14008C), HMI-9 (Genentech) and 1% hypoxanthine (Genentech). Trypanosome lysis was performed by treating 1×10⁵ Trypanosomes with serial dilutions of NHS or recombinant APOL1 for 16 h in a total of 100 μl. Live cell read out was done by the Alamar Blue assay as per the manufacturer's protocol, (Thermo Fisher, DAL1100). Briefly 10 μl of Alamar Blue was added to each well, incubated at 37° C. for 4 h. Red fluorescence, indicating live trypanosomes, was measured on a SpectraMax® fluorimeter powered by SoftMAX® PRO with excitation at 530 nm and emission 590 nm. For the antibody blocking assay, 1% normal human serum was preincubated with 1-10 μg/ml of anti-APOL1 antibody or media at room temperature for 20 minutes followed by addition of trypanosomes. After 16 h, the Alamar Blue assay was performed as above and background values for media only were subtracted and % blocking calculated by normalizing to no antibody control.
Trypanosoma brucei brucei were obtained under MTA from ATCC and cultured in HMI-9 media containing IMDM (Genentech), heat-inactivated (56° C. for 30 min) FBS (Seradigm IXL9/06807/GEN), 1% serum plus (Sigma 14008C), HMI-9 (Genentech) and 1% hypoxanthine (Genentech). Trypanosome lysis was performed by treating 1×10⁵ Trypanosomes with serial dilutions of NHS or recombinant APOL1 for 16 h in a total of 100 μl. Live cell read out was done by the Alamar Blue assay as per the manufacturer's protocol (30) (Thermo Fisher, DAL1100). Briefly 10 μl of Alamar Blue was added to each well, incubated at 37° C. for 4 h. Red fluorescence, indicating live trypanosomes, was measured on a SpectraMax fluorimeter powered by SoftMAX PRO with excitation at 530 nm and emission 590 nm. For the antibody blocking assay, 1% normal human serum was preincubated with 1-10 μg/ml of anti-APOL1 antibody or media at room temperature for 20 mins followed by addition of trypanosomes.

[2] = molecular target: T2, untagged APOL1-G0, KIK variant, …; assay: immunofluorescence on transfected COS cells, 1 µg/ml; grade

Row | Binder | binding result [1] | binding result [2]
1 | antibody 4.12E5 (antibody, V domains shown, Mouse mAb, cloned as murine IgG2a LALAPG) VH: EVQLQQSGPELVKTGASVKISCKASGYSFTGYFMHWVKQSHGKSLEWIGYISCYNGASVYNQRFKGKATFTIDTSSSTAYMQFNSLTSEDSAVYYCARDVLRYPRYAVDYWGQGTSVTVSS VL: not shown | binds | binds
2 | antibody 3.6D12 (antibody, V domains shown, Mouse mAb (Method #3), cloned as murine IgG2a LALAPG; Early screens used hybridoma-purified antibody; also called mAb 3.6D12) VH: EVMLVESGGGLVRPGGSLKLSCTASGFTFSRCAMSWVRQTPEKRLEWVSAISRDSTYTYYSDSVKGRFTVSRDNAKNTLYLQMSSLRSEDTAMYYCARQIDDYYVDALDYWGQGTSVTVSS VL: DVQITQSPSYLAASPGETITINCRASKIISKYLAWYQEKPGKTIKLLIYSGFTLQSGIPSRFSGSGSGTDFTLTISSLEPEDFAMYYCQQHNEYPLTFGAGTKLEIKR | binds | binds
3 | antibody 4.17A5 (antibody, V domains shown, Mouse mAb (Method #4), cloned as murine IgG2a LALAPG; also called mAb 4.17A5) VH: QVQLQQSGPELLKPGASVKISCKGSGYAFSNSWINWVKLRPGQGLEWIGRIYPGDGDTKYNGKFKGKATLTADKSSSTAHMQLRSLTSVDSAVYFCARFPFGKYEGPGAMDYWGQGTSVTVSS VL: DIQMTQTTSSLSASLGDRVTISCRASQDISSYLNWYQQKPDGTIKLLIYYTSRLHSGVPSRFSGSGSGTDFSLTISNLEQEDIATYFCQQGNTLPYTFGGGTKLEIKR | binds | binds
4 | rabbit monoclonal antibody 5.17D12 (antibody, V domains shown, Rabbit mAb (Method #5), recombinant; also called rabmab 5.17D12) VH: QSLEESGGDLVKPGASLTLTCTASGFSFSSNYYMCWVRQAPGKGLEWIACVYVGSGGSTYYASWAKGRFTFSKTSSTTWTLQMTSLTAADTATYFCARDLSYAGDLWGPGTLVTVSS VL: DPVMTQTPASVSEPVGGTVTINCQASESISSYLAWYQQKPGQPPKLLIYGASNLASGVPSRFKGSGSGTEYTLTISDLECDDAATYYCQSAYYSNSGGHAFGGGTEVVVKG | binds | binds
5 | antibody 3.7D6 (antibody, V domains shown, Mouse mAb, cloned as murine IgG2a LALAPG; those versions are not written separately; also called PFD antibody 3.7D6) VH: QIQLVQSGPDLKKPGETVKISCRTSGYAFTNYGVNWVKQAPGKGLKWMGWINTNTGQTTYAEEFRGRFAISLETSASTAFLTISNLKNEDSATYFCARLIYDGDYISSDFWGQGTTLTVSS VL: DIQMTQSPDSLSASVGETVTITCGASENIYGALNWYQRKQGKSPQLLIYGATNLADGMSSRFSGSRSGRQYSLKISSLHPDDVATYYCQNALSMPYTFGGGTKLEIKR | – | binds
6 | antibody 3.1C1 (antibody, V domains shown, Mouse mAb, cloned as murine IgG2a LALAPG; not written separately; also called SRA-ID mAb 3.1C1) VH: QVQLQQSGPELVKPGASVRISCKASGYTFTNYFIHWVKQRPGQGLEWIGWINPGNLNTKYTEEFKGKATLTADKSSSTAYIQLNSLTSEDSAVYFCVNGNPFVYWGQGTLVTVSA VL: DIVMTQSPSSLTVIAGEKVTLNCKSSQSLLNSGNQKKYLTWLQQKPGQPPKLLIYWTSTRDSGVPDRFTGSGSGTDFTLTISSVQAEDLAVYYCQNDYSYPLTFGAGTKLEIKR | binds | binds
7 | antibody 3.6E10 (antibody, V domains shown, Mouse mAb, cloned as murine IgG2a LALAPG) VH: QVQLQQSGAELAKPGASVKMSCKASGYIFTSYYLHWVKQRPGQGLEWIGYINPNTGYTEYTQNFKDRATLTADKSSSTAYMQLTSLTSEDSAVYFCVNGNPFVYWGQGTLVTVSA VL: DIVMTQSPSSLTVTTGEKVTMTCRSSQSLLNSGNQKNYLTWFQQKPGQPPKLLIYWTSTRYSGVPDRFTGSGSGTDFTLTISSVQAEDLAVYYCQNDYSYPLTFGAGTKLEIKR | binds | binds
